US20240141027A1 (BIOARCTIC, published 2024)

Columns and labels:
[1] = target: T1, recombinant murine transferrin receptor 1 (mTfR1), extracellular domain fused to a His-tag (murine, UniProt Q62351 89-763); test: indirect ELISA, plates coated with recombinant mTfR1
T1 construct: Position of the His-tag (N or C) unknown; also called recombinant mTfR1; murine TfR1; not shown: His-tag
Procedure: Binding of selected expressed constructs to mTfR1 was assessed by indirect ELISA (FIG. 4). In brief, half area 96-well plates (Corning, #3690) were coated with 1 μg/ml recombinant mTfR1, produced as described in Example 4, in PBS overnight at 4° C. The coated plates were blocked using Pierce protein-free blocking solution (Thermo Fisher Scientific, #37572) for 1 h at room temperature with shaking and washed four times in PBS containing 0.1% TWEEN-20. Serial dilutions (1:3) of expressed constructs in incubation buffer (1% BSA, 0.1% TWEEN-20 in PBS) were incubated for 1 h at room temperature. Following the four wash steps, bound test constructs were detected by addition of anti-mouse-IgG F(ab′)2-HRP antibody (Jackson Immuno Research, #115-035-006) at 1:1250 dilution in incubation buffer (1 h, room temperature). Following four wash steps, K-Blue® Aqueous TMB substrate (Neogen, #331177) was added to the wells for 15 min at room temperature before the reaction was stopped with 1:1 dilution of 0.5 M H₂SO₄. The optical density at 450 nm was recorded (Spark, Tecan) and background signal was subtracted before analysis.

[2] = target: T2, mTfR1 expressed on cell surfaces of Immortalized Mouse Cerebral Capillary Endothelial Cells (cEND) (mouse, UniProt Q62351 1-763); test: flow cytometry on cEND cells, 100 nM, 4° C., anti-mouse IgG-PE
T2 construct: whole, on cells; also called mTfR1 on cEND cells
T2 sequence (Q62351 whole entry): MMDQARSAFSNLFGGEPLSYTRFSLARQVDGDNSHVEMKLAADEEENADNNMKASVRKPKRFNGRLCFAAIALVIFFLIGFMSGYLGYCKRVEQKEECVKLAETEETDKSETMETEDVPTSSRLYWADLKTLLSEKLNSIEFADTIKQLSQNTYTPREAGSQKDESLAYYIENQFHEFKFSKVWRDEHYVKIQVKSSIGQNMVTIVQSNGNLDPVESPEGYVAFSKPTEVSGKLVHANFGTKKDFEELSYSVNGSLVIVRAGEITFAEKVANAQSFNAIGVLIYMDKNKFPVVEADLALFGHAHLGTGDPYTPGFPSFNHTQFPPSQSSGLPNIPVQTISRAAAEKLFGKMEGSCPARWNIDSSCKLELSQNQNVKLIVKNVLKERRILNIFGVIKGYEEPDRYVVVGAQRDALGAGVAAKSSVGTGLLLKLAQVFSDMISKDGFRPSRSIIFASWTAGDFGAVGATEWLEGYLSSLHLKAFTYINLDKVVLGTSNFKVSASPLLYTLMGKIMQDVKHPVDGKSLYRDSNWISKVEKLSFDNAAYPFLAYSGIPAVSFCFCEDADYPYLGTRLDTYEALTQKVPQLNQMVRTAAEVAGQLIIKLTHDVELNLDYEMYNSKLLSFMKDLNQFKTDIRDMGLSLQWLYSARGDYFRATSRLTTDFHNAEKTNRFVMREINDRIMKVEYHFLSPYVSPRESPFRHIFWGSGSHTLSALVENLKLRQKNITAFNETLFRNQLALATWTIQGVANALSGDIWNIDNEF
Procedure: Binding and uptake mediated by TfR1 was measured on Immortalized Mouse Cerebral Capillary Endothelial Cells (cEND) (ABM, #T0290).
The pellet was resuspended in PBS and 200,000 cells per well were seeded in U-bottom 96-well Corning plates for flow cytometry staining. Cells were then washed with PBS and incubated with 100 nM of one of the mAb158-8D3 constructs mAb158-scLc-8D3-Ig.1, mAb158-scLc-8D3-Ig.2 and mAb158-scLc-8D3-Ig.3, control 8D3 IgG (light chain of SEQ ID NO:17, heavy chain of SEQ ID NO:19) or murine IgG control for 45 min at 4° C. After primary incubation, cells were washed twice with ice cold PBS, and mAb158-8D3 constructs were captured using a fluorescently labeled secondary anti-mouse IgG-PE antibody (BD Biosciences, 550589). After incubation, cells were washed twice with PBS and resuspended in 200 μl PBS. Cells were acquired in a BD FACSLyric flow cytometer system (BD Biosciences) and samples were analyzed using FCS Express software (De Novo Software).

[3] = target: T1, recombinant murine transferrin receptor …; test: SPR (Biacore 8K), mTfR1 amine-coupled on CM5 chip, single cycle kinetics
Procedure: Monovalent binding interaction for mAb158-scLc-8D3-Ig.8 against murine TfR1 was measured using surface plasmon resonance (Biacore 8K, Cytiva). A Cm5 sensor chip (Cytiva, #BR100399) was immobilized with 3 μg/ml of mTfR1 using the amine coupling kit type 2 (Cytiva, #BR100633) according to the manufacturer's instruction. A 2-fold dilution series in HBS-EP+(Cytiva, #BR100669) starting at 50 nM of analyte was injected in duplicates over the immobilized ligand and the interaction was measured using the single cycle kinetics method with a contact time of 160 s at a flow rate of […] followed by a dissociation time of 1000 s.

T1 sequence (Q62351 89-763): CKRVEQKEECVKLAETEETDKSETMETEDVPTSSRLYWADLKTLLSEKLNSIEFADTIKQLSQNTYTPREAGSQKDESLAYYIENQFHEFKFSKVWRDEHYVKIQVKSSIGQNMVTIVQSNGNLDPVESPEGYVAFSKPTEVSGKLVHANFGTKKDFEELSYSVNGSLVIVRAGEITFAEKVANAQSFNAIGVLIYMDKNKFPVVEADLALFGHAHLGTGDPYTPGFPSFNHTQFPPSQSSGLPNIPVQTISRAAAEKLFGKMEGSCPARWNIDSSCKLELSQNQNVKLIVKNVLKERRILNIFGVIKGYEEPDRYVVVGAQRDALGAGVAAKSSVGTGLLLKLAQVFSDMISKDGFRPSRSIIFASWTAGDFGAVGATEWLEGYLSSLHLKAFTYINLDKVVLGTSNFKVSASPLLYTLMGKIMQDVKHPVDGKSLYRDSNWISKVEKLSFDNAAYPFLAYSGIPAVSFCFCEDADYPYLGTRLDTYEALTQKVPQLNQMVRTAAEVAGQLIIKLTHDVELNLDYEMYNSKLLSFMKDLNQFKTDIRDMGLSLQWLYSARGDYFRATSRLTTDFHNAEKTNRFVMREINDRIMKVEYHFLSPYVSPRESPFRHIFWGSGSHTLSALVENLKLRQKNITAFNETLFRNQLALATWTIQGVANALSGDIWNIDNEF

B1: mAb158-scLc-8D3-Ig.2 (bispecific antibody, human IgG1, kappa)
heavy: not shown
chain: DIVMTQAPLSLPVSLGDQASISCRSSQSIVHSNGNTYLEWYLQKPGQSPKLLIYKVSNRFSGVPDRFSGSGSGTDFTLKISRVEAEDLGIYYCFQGSHVPPTFGGGTKLEIKRADAAPTVSIFPPSSEQLTSGGASVVCFLNNFYPKDINVKWKIDGSERQNGVLNSWTDQDSKDSTYSMSSTLTLTKDEYERHNSYTCEATHKTSTSPIVKSFNRNECGGGGSGGGGSGGGGSGGGGSGGGGSEVQLVESGGGLVQPGNSLTLSCVASGFTFSNYGMHWIRQAPKKGLEWIAMIYYDSSKMNYADTVKGRFTISRDNSKNTLYLEMNSLRSEDTAMYYCAVPTSHYVVDVWGQGVSVTVSSGGGGSGGGGSGGGGSDIQMTQSPASLSASLEEIVTITCQASQDIGNWLAWYQQKPGKSPQLLIYGATSLADGVPSRFSGSRSGTQFSLKISRVQVEDIGIYYCLQAYNTPWTFGGGTKLELKRGGGGSGGGGSGGGGSGGGGSGGGGSDIVMTQAPLSLPVSLGDQASISCRSSQSIVHSNGNTYLEWYLQKPGQSPKLLIYKVSNRFSGVPDRFSGSGSGTDFTLKISRVEAEDLGIYYCFQGSHVPPTFGGGTKLEIKRADAAPTVSIFPPSSEQLTSGGASVVCFLNNFYPKDINVKWKIDGSERQNGVLNSWTDQDSKDSTYSMSSTLTLTKDEYERHNSYTCEATHKTSTSPIVKSFNRNEC
notes: Format [LC-L1-scBM-L2-LC]
- binding result [1]: binds
- binding result [2]: binds

B2: mAb158-scLc-8D3-Ig.3 (bispecific antibody, human IgG1, kappa)
heavy: not shown
chain: DIVMTQAPLSLPVSLGDQASISCRSSQSIVHSNGNTYLEWYLQKPGQSPKLLIYKVSNRFSGVPDRFSGSGSGTDFTLKISRVEAEDLGIYYCFQGSHVPPTFGGGTKLEIKRADAAPTVSIFPPSSEQLTSGGASVVCFLNNFYPKDINVKWKIDGSERQNGVLNSWTDQDSKDSTYSMSSTLTLTKDEYERHNSYTCEATHKTSTSPIVKSFNRNECGGSSGSGSGSTGTSSSGTGTSAGTTGTSASTSGSGSEVQLVESGGGLVQPGNSLTLSCVASGFTFSNYGMHWIRQAPKKGLEWIAMIYYDSSKMNYADTVKGRFTISRDNSKNTLYLEMNSLRSEDTAMYYCAVPTSHYVVDVWGQGVSVTVSSGGGGSGGGGSGGGGSDIQMTQSPASLSASLEEIVTITCQASQDIGNWLAWYQQKPGKSPQLLIYGATSLADGVPSRFSGSRSGTQFSLKISRVQVEDIGIYYCLQAYNTPWTFGGGTKLELKRGGSSGSGSGSTGTSSSGTGTSAGTTGTSASTSGSGSGGSSGSGSGSTGTSSSGTGTSAGTTGTSASTSGSGSDIVMTQAPLSLPVSLGDQASISCRSSQSIVHSNGNTYLEWYLQKPGQSPKLLIYKVSNRFSGVPDRFSGSGSGTDFTLKISRVEAEDLGIYYCFQGSHVPPTFGGGTKLEIKRADAAPTVSIFPPSSEQLTSGGASVVCFLNNFYPKDINVKWKIDGSERQNGVLNSWTDQDSKDSTYSMSSTLTLTKDEYERHNSYTCEATHKTSTSPIVKSFNRNEC
notes: Format [LC-L1-scBM-L2-LC]
- binding result [1]: binds
- binding result [2]: binds

B3: mAb158-scLc-8D3-Ig.1 (bispecific antibody, human IgG1, kappa)
heavy: not shown
chain: DIVMTQAPLSLPVSLGDQASISCRSSQSIVHSNGNTYLEWYLQKPGQSPKLLIYKVSNRFSGVPDRFSGSGSGTDFTLKISRVEAEDLGIYYCFQGSHVPPTFGGGTKLEIKRADAAPTVSIFPPSSEQLTSGGASVVCFLNNFYPKDINVKWKIDGSERQNGVLNSWTDQDSKDSTYSMSSTLTLTKDEYERHNSYTCEATHKTSTSPIVKSFNRNECGGGGSGGGGSGGGGSEVQLVESGGGLVQPGNSLTLSCVASGFTFSNYGMHWIRQAPKKGLEWIAMIYYDSSKMNYADTVKGRFTISRDNSKNTLYLEMNSLRSEDTAMYYCAVPTSHYVVDVWGQGVSVTVSSGGGGSGGGGSGGGGSDIQMTQSPASLSASLEEIVTITCQASQDIGNWLAWYQQKPGKSPQLLIYGATSLADGVPSRFSGSRSGTQFSLKISRVQVEDIGIYYCLQAYNTPWTFGGGTKLELKRGGSSGSGSGSTGTSSSGTGTSAGTTGTSASTSGSGSDIVMTQAPLSLPVSLGDQASISCRSSQSIVHSNGNTYLEWYLQKPGQSPKLLIYKVSNRFSGVPDRFSGSGSGTDFTLKISRVEAEDLGIYYCFQGSHVPPTFGGGTKLEIKRADAAPTVSIFPPSSEQLTSGGASVVCFLNNFYPKDINVKWKIDGSERQNGVLNSWTDQDSKDSTYSMSSTLTLTKDEYERHNSYTCEATHKTSTSPIVKSFNRNEC
- binding result [1]: binds
- binding result [2]: binds

B4: 8D3 Fab (Fab, V domains shown)
VH: EVQLVESGGGLVQPGNSLTLSCVASGFTFSNYGMHWIRQAPKKGLEWIAMIYYDSSKMNYADTVKGRFTISRDNSKNTLYLEMNSLRSEDTAMYYCAVPTSHYVVDVWGQGVSVTVSS
VL: DIQMTQSPASLSASLEEIVTITCQASQDIGNWLAWYQQKPGKSPQLLIYGATSLADGVPSRFSGSRSGTQFSLKISRVQVEDIGIYYCLQAYNTPWTFGGGTKLELKR
notes: Anti-mouse TfR1 control; also called monovalent 8D3 Fab control; monovalent 8D3 Fab
- binding result [3]: binds
